Test results: patent US20200247886A1 (ZLIP, published 2020)

Key:
[1] = biological target: T1, human CD47 expressed on cells (CD47 expressing CHO cells, Jurkat, HL60, DLD1, Raji) (human, UniProt Q08722 19-292); assay: flow cytometry on DLD1 cells, IgG, MFI
T1 construct: also called CHO-CD47; IAP

[2] = biological target: T1, human CD47 expressed on cells (CD47 …); assay: flow cytometry on DLD1 cells, IgG, frequency
[3] = biological target: T1, human CD47 expressed on cells (CD47 …); assay: flow cytometry on human platelets, donor 2, MFI
[4] = biological target: T1, human CD47 expressed on cells (CD47 …); assay: IC50 as grade, SIRPα blocking on Raji cells; legend +++: <1 nM
[5] = biological target: T1, human CD47 expressed on cells (CD47 …); assay: flow cytometry on CD47 expressing CHO cells, MFI (FL-4)
[6] = biological target: T1, human CD47 expressed on cells (CD47 …); assay: flow cytometry on human red blood cells, donor 1, MFI
[7] = biological target: T1, human CD47 expressed on cells (CD47 …); assay: flow cytometry on human red blood cells, donor 2, MFI
[8] = biological target: T1, human CD47 expressed on cells (CD47 …); assay: flow cytometry SIRP-alpha blocking assay on Raji cells, MFI
[9] = biological target: T1, human CD47 expressed on cells (CD47 …); assay: flow cytometry blocking assay on Raji cells, SIRPα is the blocked ligand, MFI
[10] = biological target: T1, human CD47 expressed on cells (CD47 …); assay: as above; remark: listed apart in the source
[11] = biological target: T1, human CD47 expressed on cells (CD47 …); assay: IC50 as grade, SIRPα blocking on Raji cells (second part of the table); legend +++: <1 nM
His-tagged CD47 [12] = biological target: T2, His-tagged CD47 (Homo sapiens (Human), UniProt Q08722 19-139, limits assumed); assay: IC50 (nM) MFI as grade, blocking His-tagged CD47 binding to SIRPα-CHO cells; legend +: >2.7 nM
T2 construct: not shown: His tag

[13] = biological target: T1, human CD47 expressed on cells (CD47 …); assay: IC50 (nM) MFI as grade, blocking biotinylated SIRPa-Fc binding to DLD1 cells; legend +++: <1 nM
His-tagged CD47 [14] = biological target: T2, His-tagged CD47; assay: IC50 (nM) Frequency as grade, blocking His-tagged CD47 binding to SIRPα-CHO cells; legend +: >2.7 nM
[15] = biological target: T1, human CD47 expressed on cells (CD47 …); assay: IC50 (nM) Frequency as grade, blocking biotinylated SIRPa-Fc binding to DLD1 cells; legend ++: >1 nM and <20 nM
[16] = biological target: T1, human CD47 expressed on cells (CD47 …); assay: flow cytometry blocking assay: 100 nM biotinylated SIRPa-Fc (blocked ligand) on DLD1 cells expressing CD47, MFI
[17] = biological target: T1, human CD47 expressed on cells (CD47 …); assay: flow cytometry blocking assay: 100 nM biotinylated SIRPa-Fc (blocked ligand) on DLD1 cells expressing CD47, frequency
[18] = biological target: T3, biotin labelled polyhistidine tagged CD47 protein (Novoprotein, Cat#321) (human, UniProt Q08722 19-139, biotin labelled (site not stated)); assay: flow cytometry blocking assay: antibody mixed with biotinylated human CD47 protein; blocked ligand SIRPα on cells; binding percentage
T3 construct: Bought protein; also called biotinylated CD47; biotinylated human CD47 protein; not shown: polyhistidine tag

His-tagged CD47 [19] = biological target: T2, His-tagged CD47; assay: flow cytometry blocking assay: His-tagged CD47 with Fab on SIRPα-expressing CHO cells (SIRPα is the blocked ligand), anti-His-APC, MFI
His-tagged CD47 [20] = biological target: T2, His-tagged CD47; assay: flow cytometry blocking assay: His-tagged CD47 with Fab on SIRPα-expressing CHO cells (SIRPα is the blocked ligand), anti-His-APC, frequency
[21] = biological target: T1, human CD47 expressed on cells (CD47 …); assay: flow cytometry on HL60 cells, Fab, frequency
[22] = biological target: T1, human CD47 expressed on cells (CD47 …); assay: flow cytometry on DLD1 cells, Fab, frequency
[23] = biological target: T1, human CD47 expressed on cells (CD47 …); assay: EC50 (nM) as grade, flow cytometry, Fab on DLD1 cells; legend +++: <5 nM
[24] = biological target: T1, human CD47 expressed on cells (CD47 …); assay: EC50 (nM) as grade, flow cytometry, Fab on HL60 cells; legend ++: >1 nM and <7 nM
His-tagged CD47 [25] = biological target: T2, His-tagged CD47; assay: IC50 (nM) MFI as grade, blocking His-tagged CD47 binding to SIRPα-CHO cells; legend +++: <2 nM
[26] = biological target: T3, biotin labelled polyhistidine tagged …; assay: IC50 (nM) as grade, Fab blocking biotinylated CD47 binding to SIRPα-CHO cells; legend +++: <10 nM
His-tagged CD47 [27] = biological target: T2, His-tagged CD47; assay: IC50 (nM) Frequency as grade, blocking His-tagged CD47 binding to SIRPα-CHO cells; legend ++: >2 nM and <2.7 nM
[28] = biological target: T3, biotin labelled polyhistidine tagged …; assay: flow cytometry blocking assay: biotinylated CD47 with Fab on SIRPα-expressing CHO cells (SIRPα is the blocked ligand), frequency
[29] = biological target: T1, human CD47 expressed on cells (CD47 …); assay: EC50 (nM) as grade, flow cytometry, Fab on HL60 cells; legend +: >7 nM
[30] = biological target: T3, biotin labelled polyhistidine tagged …; assay: IC50 (nM) as grade, Fab blocking biotinylated CD47 binding to SIRPα-CHO cells; legend ++: >10 nM and <65 nM

B1: Positive 3 (analogue antibody) (antibody, V domains shown)
VH: QMQLVQSGAEVKKTGSSVKVSCKASGFNIKDYYLHWVRQAPGQALEWMGWIDPDQGDTEYAQKFQDRVTITRDRSMSTAYMELSSLRSEDTAMYYCNAAYGSSSYPMDYWGQGTTVTV
VL: NIQMTQSPSAMSASVGDRVTITCKASQDIHRYLSWFQQKPGKVPKHLIYRANRLVSGVPSRFSGSGSGTEFTLTISSLQPEDFATYYCLQYDEFPYTFGGGTKVEIK
- EC50 (read off the curve) [1]: ~0.6 nM
- EC50 (read off the curve) [2]: ~0.07 nM
- EC50 (read off the curve) [3]: ~0.6 nM
- IC50 [4]: < 1 nM
- EC50 (read off the curve) [5]: ~1 nM
- EC50 (read off the curve) [6]: ~1 nM
- EC50 (read off the curve) [7]: ~1 nM
- IC50 (read off the curve) [8]: ~0.6 nM
- IC50 (read off the curve) [9]: ~0.6 nM
- IC50 (read off the curve) [10]: ~0.9 nM
- IC50 [11]: < 1 nM
- IC50 (His-tagged CD47 [12]): > 2.7 nM
- IC50 [13]: < 1 nM
- IC50 (His-tagged CD47 [14]): > 2.7 nM
- IC50 [15]: 1 to 20 nM
- IC50 (read off the curve) [16]: ~0.3 nM
- IC50 (read off the curve) [17]: ~1 nM
- IC50 (read off the curve) [18]: ~1 nM
- IC50 (read off the curve) (His-tagged CD47 [19]): ~3 nM
- IC50 (read off the curve) (His-tagged CD47 [20]): ~3 nM

B2: ABU9 (Fab) (Fab, V domains shown)
VH: EVQLQQSGPELVKPGASVKLSCKASGFTFTNYYIHWVKQRPGQGPEWIGWIYLGSGNTKYNEKFKGKATLTADTSSSTAYLQLSTLISEDSAVYYCARYDYDLYLDSWGQGTTVTVSS
VL: DIKMNQSPSSLSASLGDTITITCHASQNINVWLSWYQQKPGNIPKLLIYKASNLHTGVPSRFSGSGSGTGFTLTISSLQPEDIATYYCQQGQSYPLTFGAGTKLELK
notes: Phage-derived Fab: murine VL and VH fused to human CL and CH1
- EC50 (read off the curve) [21]: ~6 nM
- EC50 (read off the curve) [22]: ~2 nM
- EC50 [23]: < 5 nM
- EC50 [24]: 1 to 7 nM
- IC50 (His-tagged CD47 [25]): < 2 nM
- IC50 [26]: < 10 nM
- IC50 (His-tagged CD47 [27]): 2 to 2.7 nM
- IC50 (read off the curve) [28]: ~9 nM
- IC50 (read off the curve) (His-tagged CD47 [19]): ~2 nM
- IC50 (read off the curve) (His-tagged CD47 [20]): ~3 nM

B3: ABU14 (Fab) (Fab, V domains shown)
VH: EVQLQQSGPELVKPGASVKISCKASGYSFTNYHIHWVKQRPGQGLEWIGWIYPGSGNTKYNEKFKGMAILTADTSSSTAYMQLSSLTSEDSAVYYCARYDYDLYLHSWGQGTTVTVSS
VL: DIQINQSPSSLSASLGDTITITCHASQNINVWLSWYQQKPGNIPKLLIYKASNLHTGVPSRFSGSGSGTGFTLTISSLQPEDIATYYCQQGQSYPLTFGAGTKLEIK
notes: as for B2
- EC50 (read off the curve) [21]: ~10 nM
- EC50 (read off the curve) [22]: ~4 nM
- EC50 [29]: > 7 nM
- EC50 [23]: < 5 nM
- IC50 (His-tagged CD47 [25]): < 2 nM
- IC50 [30]: 10 to 65 nM
- IC50 (His-tagged CD47 [27]): 2 to 2.7 nM
- IC50 (read off the curve) [28]: ~20 nM
- IC50 (read off the curve) (His-tagged CD47 [19]): ~2 nM
- IC50 (read off the curve) (His-tagged CD47 [20]): ~3 nM
